Test results published in patent publication US12533399B2, “Composition comprising tTF-NGR for use in treating soft-tissue sarcoma” (ANTUREC PHARMACEUTICALS GMBH, priority 2020, dated 2026).

B1: tTF-NGR: fusion protein of truncated tissue factor (tTF) with C-terminal NGR targeting peptide binding CD13 and N-terminal His-tag, SEQ ID NO: 2 (protein)
chain: MHHHHHHSSGLVPRGSGMKETAAAKFERQHMDSPDLGTDDDDKAMGSGTTNTVAAYNLTWKSTNFKTILEWEPKPVNQVYTVQISTKSGDWKSKCFYTTDTECDLTDEIVKDVKQTYLARVFSYPAGNVESTGSAGEPLYENSPEFTPYLETNLGQPTIQSFEQVGTKVNVTVEDERTLVRRNNTFLSLRDVFGKDLIYTLYYWKSSSSGKKTAKTNTNEFLIDVDKGENYCFSVQAVIPSRTVNRKSTDSPVECMGQEKGEFRGNGRAHA
modifications: His-tTF-NGR fusion protein

Key:
[1] = test system: HT1080 human sarcoma cells; assay: PS upregulation on HT1080 sarcoma cells; format: cell-based; conditions: Trabectedin 10 nM, 8 h; 6 experiments; p=0.001 vs non-Trabectedin control
Procedure: FIG. 5: illustration of the synergistic activity of tTF-NGR and Trabectedin in HT1080 human sarcoma cells. […] Means+standard error (p value=0.001). Propidiumiodide was used as an internal necrosis control. […] Means of 4 experiments+standard error and p-values.
As in tumor tissues part of the inner vascular cell layer of the neovasculature is not formed by endothelial cells, but also by tumor cells, which is termed “vascular mimicry”, analog experiments were also performed with HT1080 human sarcoma cells instead of HUVECs (see FIG. 5).

HUVEC = assay: PS upregulation on HUVEC cell membranes, flow cytometry with annexin V-FITC; format: cell-based, human
Procedure: FIG. 4: illustration of the synergistic activity of tTF-NGR and Trabectedin in human vascular endothelial cells (HUVEC). […] PS is detected by the fluorescent PS-binding annexin V-FITC.
This effect is specifically dependent on the presence of PS as it can be completely abolished by masking PS via preincubation with annexin V.

[2] = Clinical phase I study of tTF-NGR: pharmacokinetics; format: in vivo, human; conditions: patients
Procedure: (§1) A clinical phase I trial was performed (EudraCT-No.: 2016-003042-85; NCT02902237) with tTF-NGR applied as 1-hour infusion solved in 0.9% NaCl via a central venous line in late stage cancer patients. This trial was a first-in-class trial, which was guided by repeated contrast-enhanced ultrasound (CEUS) and MRI to assess for blood flow decrease in tumor signal lesions. A “5-day q day 22” schedule was used in the study design.

CD13 = molecular target: T1, CD13 (Homo sapiens, UniProt P15144); assay: Binding of tTF-NGR to its target on growing endothelial cells; format: cell-based
T1 construct: endogenous in cells; host or cells: growing / stimulated endothelial cells (EC)
Procedure: (§2) These fusion proteins were tested in vitro and in vivo for essential therapeutic properties, such as pro-coagulatory activity, specific binding to their respective target molecules on stimulated endothelial cells (EC) or pericytes, in vivo intratumoral accumulation, in vivo intratumoral activation of coagulation, tumor vascular occlusion and inhibition of blood flow, pharmacodynamic properties including therapeutic antitumor activity in xenotransplants of human tumors from different histologic origin, and finally rodent as well as non-rodent animal safety and toxicology. […] Preclinical therapeutic activity of tTF-NGR was independent of tumor histology (e.g. melanoma, lung, breast, sarcoma, glioblastoma).

[3] = test system: xenotransplants of human tumors; assay: Preclinical therapeutic activity in xenotransplants of human tumors; format: in vivo
Procedure: as §2

tumor = assay: Intravascular contrast enhanced MRI of the tumor after tTF-NGR (FIG. 3); format: in vivo; conditions: few hours after tTF-NGR application
Source text: FIG. 3: illustration of the therapeutic activity and modes of action of tTF-NGR by different imaging techniques. 1. Bluish coloration of the tumor (A, left: tTF-NGR. A, right: vehicle control) few hours after injection of tTF-NGR macroscopically visualizing blood pooling and vascular disruption. 2. Intravascular contrast enhanced Magnetic Resonance Imaging (MRI) of the tumor showing anatomy of the tumors (A, B) and drastic decrease of blood flow from high blood flow (C) to low (D) few hours after tTF-NGR application. The vascular volume fraction was quantified to decrease>1 log. 3. H&E staining of sarcoma xenograft tissue (A, thrombosis, blood pooling and vascular disruption after tTF-NGR; B, saline control with normal vasculature). 4. In vivo fluorescence reflectance imaging showing the vascular anatomy by intravascular fluorescent fibrin after tTF-NGR (B). A, before tTF-NGR; B, 1 hour after tTF-NGR; C, vascular disruption 24 hours after tTF-NGR.

[4] = test system: late stage solid tumor and lymphoma patients; assay: Clinical phase I study of tTF-NGR: DLT, safety, response; format: in vivo, human
Procedure: as §1
This sensitive laboratory DLT was fast reversible and allows early monitoring for subsequent dose adjustment in future trials. […] Thus, the trial was completed with a recommended dose for phase II (RPIID) at 3 mg/m^2/day×5, q d 22. The investigational medicinal product (IMP) is given via a PORT central venous access in 100 mL 0.9% NaCl over a rate-controlled infusion with a 1-hour duration.
(§3) The tumor blood flow inhibition was up to >1-log-step. […] In none of the patients treated so far a CR or a PR could be observed.

[5] = test system: tumor blood flow (intratumoral blood circulation); assay: Clinical phase I study of tTF-NGR: tumor blood flow by CEUS and MRI; format: in vivo, human; conditions: patients
Procedure: as §1, §3

[6] = Toxicity evaluation according to EU-guidelines S6 and S9; format: in vivo; conditions: most sensitive species (mouse)
Source text: tTF-NGR was produced using E. coli via a clinical-grade production process and a 4-step HPLC purification. The production process and the GMP facility are approved by the regional government (Manufacturer's Authorisation by Regierungspräsidium) and the federal Paul Ehrlich-Institute (PEI). Toxicity evaluation according to EU-guidelines S6 and S9 in mouse, rat, guinea pigs, and dogs has been completed.

T1 sequence (P15144 whole entry): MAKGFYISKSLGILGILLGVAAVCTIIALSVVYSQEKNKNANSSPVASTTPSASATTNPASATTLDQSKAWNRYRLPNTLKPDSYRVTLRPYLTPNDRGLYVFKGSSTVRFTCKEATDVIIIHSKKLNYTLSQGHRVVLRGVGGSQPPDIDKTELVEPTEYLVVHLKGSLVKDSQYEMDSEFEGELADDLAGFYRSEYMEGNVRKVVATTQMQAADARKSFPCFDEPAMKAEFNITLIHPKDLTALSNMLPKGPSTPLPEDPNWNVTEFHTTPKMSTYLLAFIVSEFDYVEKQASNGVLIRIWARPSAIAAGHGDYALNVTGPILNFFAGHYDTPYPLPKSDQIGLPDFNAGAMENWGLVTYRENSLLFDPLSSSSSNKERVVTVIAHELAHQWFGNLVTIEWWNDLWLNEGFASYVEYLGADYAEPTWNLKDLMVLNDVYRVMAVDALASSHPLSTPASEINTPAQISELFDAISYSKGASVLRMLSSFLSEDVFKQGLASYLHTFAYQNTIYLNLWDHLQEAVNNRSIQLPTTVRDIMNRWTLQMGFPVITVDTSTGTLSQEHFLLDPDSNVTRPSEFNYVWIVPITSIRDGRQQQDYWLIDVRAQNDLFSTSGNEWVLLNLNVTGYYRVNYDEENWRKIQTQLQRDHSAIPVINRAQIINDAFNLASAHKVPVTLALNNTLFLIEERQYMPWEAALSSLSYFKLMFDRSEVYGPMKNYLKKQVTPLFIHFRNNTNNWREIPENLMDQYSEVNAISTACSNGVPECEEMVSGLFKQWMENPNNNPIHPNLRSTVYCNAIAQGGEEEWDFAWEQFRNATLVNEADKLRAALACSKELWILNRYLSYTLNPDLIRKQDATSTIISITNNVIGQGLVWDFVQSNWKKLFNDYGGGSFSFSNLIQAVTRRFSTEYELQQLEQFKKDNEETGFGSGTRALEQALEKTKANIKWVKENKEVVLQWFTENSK

Molecule | PS upregulation on HT1080 sarcoma cells [1] | PS-positive cells (lower right quadrant) (HUVEC; Trabectedin 15 nM, 8 h incubation, 7.21% without Trabectedin, one example experiment) [%] | PS upregulation on HUVECs (HUVEC; increasing doses, after 8 and 12 h, 7 experiments, P<0.0001 vs non-Trabectedin control) | accumulation with repeated cycles [2] | mean terminal half life ([2]; 1-hour iv infusion) [h] | binding to CD13 on growing EC (CD13) | effect on tumor growth ([3]; independent of tumor histology (melanoma, lung, breast, sarcoma, glioblastoma)) | resistance development ([3]; repeated rounds of treatment) | decrease of vascular volume fraction (tumor) [log] | adverse event ([4]; at 3 mg/m^2, CTCAE II resolved, patient with angiosarcoma in left atrium) | kind of dose-limiting toxicity ([4]; at 4 mg/m^2/day, fast reversible, no clinical sequelae) | adverse event ([4]; at 4 mg/m^2, CTCAE grade II and resolved) | adverse event ([4]; at 5 mg/m^2, 1 patient, completely resolved) | dose limiting toxicity (DLT) dose ([4]; daily 1-hour iv infusions for 5 days, q day 22) [mg/m^2 per day] | patients with CR or PR ([4]; patients treated so far) | human anti-fusion protein antibodies (HAFA) ([4]; without clinical symptoms or neutralizing capacity) | recommended dose for phase II (RPIID) ([4]; x5, q d 22) [mg/m^2/day] | blood flow in normal organs [5] | tumor blood flow inhibition ([5]; up to) [log-step] | limiting toxicity [6]
COc1cc2c(cc1O)CCN[C@]21CS[C@@H]2c3c(OC(C)=O)c(C)c4c(c3[C@H](COC1=O)N1[C@@H]2[C@H]2c3c(cc(C)c(OC)c3O)C[C@@H]([C@@H]1O)N2C)OCO4 [Trabectedin] | significant PS upregulation | 29.22 | PS upregulation | – | – | – | – | – | – | – | – | – | – | – | – | – | – | – | – | –
B1 | – | – | – | no accumulation | 8.99 | specifically binds to CD13 | tumor growth inhibition and regression | no resistance development | > 1 | transient ischemic attack | temporary troponin T hs showed increase | central venous catheter-related venous thrombosis | CTCAE grade II lower limb deep vein thrombosis | 5 | none | detected in few patients | 3 | without blood flow decrease in normal organs | > 1 | pulmonary embolism
